Source: paper PMC4977500, “Rescuing neuronal cell death by RAIDD- and PIDD- derived peptides and its implications for therapeutic intervention in neurodegenerative diseases” (Scientific Reports, 2016)

B1: PIDD DD (domain or fragment, UniProt Q9HB75 777-883, looked up)
chain: LNLGDAETGFLTQSNLLSVAGRLGLDWPAVALHLGVSYREVQRIRHEFRDDLDEQIRHMLFSWAERQAGQPGAVGLLVQALEQSDRQDVAEEVRAVLELGRRKYQDS
notes: PIDD death domain, amino acids 777-883; The His tag is named on the protein for the pull-down; also called his-tagged PIDD DD; PIDD death domain; source: E. coli BL21 (DE3) RILP, purified
B2: RAIDD DD (domain or fragment)
chain: not shown
notes: RAIDD death domain, amino acids 94-199; also called RAIDD death domain; source: E. coli BL21 (DE3) RILP, purified

Tests used:
Conditions in all cases: both partners purified
[1] = target: T1, Full-length RAIDD without any tag (UniProt P78560 1-199); assay: pull-down; his-tagged PIDD DD on Ni-NTA beads, full-length RAIDD without any tag, with RDH3 or PDH3 (30 μM or 500 μM); wash 20 mM Tris-HCl pH 7.9, 500 mM NaCl, 30 mM imidazole; eluate on SDS-PAGE
T1 construct: RAIDD, full length, amino acids 1-199; source: E. coli BL21 (DE3), purified
T1 sequence (P78560 whole entry, the tested form may be a part): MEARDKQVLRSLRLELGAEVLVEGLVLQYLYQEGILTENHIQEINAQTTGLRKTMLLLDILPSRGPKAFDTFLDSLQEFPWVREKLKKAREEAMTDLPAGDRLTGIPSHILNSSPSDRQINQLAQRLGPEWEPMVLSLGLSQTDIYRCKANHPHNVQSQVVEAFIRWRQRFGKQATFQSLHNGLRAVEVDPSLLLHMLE

full-length RAIDD = target: T2, full-length RAIDD (UniProt P78560 1-199); assay: native gel or EMSA; native-PAGE on a PhastSystem, 8-25% acrylamide gradient gels, Coomassie staining; complexes in 20 mM Tris pH 8.0, 50 mM NaCl; pre-incubated with or without peptide for 1 hour at room temperature; complex band without peptide taken as 100%
T2 construct: RAIDD, full length, amino acids 1-199; source: E. coli BL21 (DE3), purified (Ni-NTA, S-200 gel filtration)
T2 sequence (P78560 whole entry, the tested form may be a part): as above

PIDD DD = target: B1; assay: as above
RAIDD DD = target: B2; assay: as above
Sequence of RAIDD DD (P78560 94-199): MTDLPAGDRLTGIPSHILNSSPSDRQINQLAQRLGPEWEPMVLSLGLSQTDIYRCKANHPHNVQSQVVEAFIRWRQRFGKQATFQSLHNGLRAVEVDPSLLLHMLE

B1
binding result [1]: binds
binding result (full-length RAIDD): binds

B2
binding result (PIDD DD): binds

B3: RDH3 (TAT-fused peptide with wildtype RAIDD DD helix 3) (peptide)
peptide: YGRKKRRQRRRGGGGLSQTDIYRCKANHPHNV
notes: RAIDD helix 3 (H3 of the death domain), wildtype; FITC-labelled versions were also made, but only for microscopy of cell entry; also called RAIDD DD H3; source: synthetic peptide (Peptron)
fold inhibitory capacity against TAT-Y814A (blocking of RAIDD DD:PIDD DD) (PIDD DD): > 5 fold

B4: PDH3 (TAT-fused peptide with wildtype PIDD DD helix 3) (peptide)
peptide: YGRKKRRQRRRGGGGVSYREVQRIRHEFR
notes: PIDD helix 3 (H3 of the death domain), wildtype; FITC-labelled versions were also made, but only for microscopy of cell entry; also called PIDD H3; source: synthetic peptide (Peptron)
fold inhibitory capacity against TAT-Y814A (blocking of RAIDD DD:PIDD DD) (RAIDD DD): > 5 fold
